From patent publication US7008781

Biological target: Tie-2 receptor in EAhy926 cells (UniProt Q02763)
Experiment: cell-based or functional assay
Details: scale: fold molar excess of Ang1*

Sequence of UniProt Q02763 (Q02763 23-1124 limits assumed): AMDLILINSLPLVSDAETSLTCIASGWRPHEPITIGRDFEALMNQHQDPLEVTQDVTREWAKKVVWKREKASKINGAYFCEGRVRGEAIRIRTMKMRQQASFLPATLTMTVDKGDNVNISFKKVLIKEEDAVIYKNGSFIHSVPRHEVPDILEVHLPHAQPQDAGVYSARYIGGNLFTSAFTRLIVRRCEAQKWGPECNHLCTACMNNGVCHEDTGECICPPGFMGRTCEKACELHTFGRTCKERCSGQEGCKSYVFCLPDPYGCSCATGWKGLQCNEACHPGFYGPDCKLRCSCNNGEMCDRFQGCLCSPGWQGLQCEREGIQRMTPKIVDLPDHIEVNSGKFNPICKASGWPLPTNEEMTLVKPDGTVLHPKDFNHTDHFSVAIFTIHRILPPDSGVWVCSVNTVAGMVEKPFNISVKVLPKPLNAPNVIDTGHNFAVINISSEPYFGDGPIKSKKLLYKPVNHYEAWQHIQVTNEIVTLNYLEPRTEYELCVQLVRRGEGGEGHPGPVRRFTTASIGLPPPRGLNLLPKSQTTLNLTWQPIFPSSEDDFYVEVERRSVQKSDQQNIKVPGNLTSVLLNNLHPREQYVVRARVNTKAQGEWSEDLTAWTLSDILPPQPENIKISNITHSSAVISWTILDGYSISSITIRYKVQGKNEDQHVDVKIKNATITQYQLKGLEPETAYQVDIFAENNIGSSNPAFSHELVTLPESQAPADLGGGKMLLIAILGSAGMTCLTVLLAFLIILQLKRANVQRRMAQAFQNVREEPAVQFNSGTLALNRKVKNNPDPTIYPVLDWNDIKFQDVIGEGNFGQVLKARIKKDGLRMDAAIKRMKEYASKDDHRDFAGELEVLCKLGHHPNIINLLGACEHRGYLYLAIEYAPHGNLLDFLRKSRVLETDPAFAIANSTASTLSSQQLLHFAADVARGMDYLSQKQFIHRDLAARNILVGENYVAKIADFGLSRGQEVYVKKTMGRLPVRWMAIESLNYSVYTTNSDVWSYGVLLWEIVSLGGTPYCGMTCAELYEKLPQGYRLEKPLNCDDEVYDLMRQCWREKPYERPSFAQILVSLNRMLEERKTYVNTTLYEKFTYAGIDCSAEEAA

block of Ang1*-mediated Tie-2 receptor phosphorylation in EAhy926 cells: > 20
Substance: angiopoietin-2 (from UniProt O15123 19-496) (ligand)
